Key:
[1] = biological target: APP-LacI fusion protein encoded by pCMV-APPI (Artificial Sequence)
[2] = biological target: LacI-SREBP2 fusion protein encoded by pCMV-ISRP (human (SREBP2 portion))

Row | luciferase activity in the repressor release assay (pRSVO-luc reporter, CHO-K1 cells) (fold reduction) [1] | luciferase activity in the repressor release assay (pRSVO-luc reporter, CHO-K1 cells) (fold reduction) [2] | Substance
1 | 35 |  | γ-secretase (enzyme)
2 |  | 100 | Site-2 protease (S2P) (enzyme)

From US6333167
